In experiment [1] the target is Recombinant human laminin‐332 (human) (UniProt Q16787). The experiment is described as follows: SPR; BIAcore 3000, 25 °C; laminin-332 immobilised on a CM5 chip (approx. 5000 RU); vWFA2 as analyte, 2.5-420 µM; running buffer 10 mM sodium phosphate pH 7.4, 150 mM NaCl; binding isotherms.
For experiment [2] the target is unchanged. The experiment is described as follows: SPR; as a1, with MgCl2 added to the running buffer to 2.5 mM.

Take “untagged vWFA2 (vWFA2 lacking any tag residues) of murine type VII collagen (from UniProt Q63870 1048-1238) (domain or fragment)”: the Kd in experiment [1] turned out to be 440 µM.

Consider “vWFA2 subdomain (amino acids 1048–1238) of murine type VII collagen, purified by intein cleavage (from UniProt Q63870 1048-1238) (domain or fragment)”, for which the Kd in experiment [2] is 1100 µM; in experiment [1], 810 µM.

Values taken from article PMC7137805.
